Where two headings read alike, the source gives them in different places.
Columns and labels:
[1] = target: T1, Sβ-gly from S. solfataricus strain MT-4 (Saccharolobus solfataricus, UniProt P22498); settings: cited from earlier work; for Km / kcat: Sβ-gly, 75° C. and pH 6.5; for efficiency of hydrolysis by Sβ-gly: in words
[2] = target: his-tagged BGPh from P. horikoshii (His-BGPh) (Pyrococcus horikoshii, UniProt O58104); format: biochemical; settings: for efficiency of hydrolysis by His-BGPh: in words; for kcat: His-BGPh, 90° C. and pH 6.0
Experimental: (§1) The enzyme reactions were carried out at 90° C. in a solution […] containing the substrate and the purified His-BGPh in 50 mM phosphate buffer (pH 6) with 0.1% Triton X-100 and 0.3 M NaCl. For the hydrolysis of p-nitrophenyl (p-Nph) β-D-saccharides, the reaction was terminated by the addition of 1 M Na2CO3 (1 ml), then centrifuged at 15,000×g for 10 min. The concentration of the p-Nph group in the supernatant was quantified by measuring the absorbance at 400 nm. For the hydrolysis of β-D-glucoside, the released glucose was analyzed with a Glucose C-II Test kit (Wako Pure Chemicals, Japan). Initial velocities were obtained directly from the initial slopes of the time course plots. The Km and kcat values were calculated using the Michaelis-Menten equation and the least squares method (12). The subsite affinity for a long alkyl chain was determined using the method reported previously (13-15) on the basis of the subsite theory (16).

[3] = target: T1, Sβ-gly from S. solfataricus strain MT-4; assay: Kinetic parameters of substrate hydrolysis by Sβ-gly (from references 7, 21); format: biochemical, Sulfolobus solfataricus
Optimum pH = format: biochemical; settings: p-Nph-β-D-Glcp, 90° C.
Experimental: The pH of the reaction mixtures ranged from 3.9 to 5.5 in sodium acetate buffer and from 5.5 to 7.99 in phosphate buffer. Optical density measurements at A405 were performed as described for the enzyme assays.

[4] = substrate: O=[N+]([O-])c1ccc(O[C@@H]2O[C@H](CO)[C@@H](O)[C@H](O)[C@H]2O)cc1; assay: purified protein, by the assay type; format: biochemical; settings: other: His-BGPh, 90° C. and pH 6.0
Experimental: (§2) The enzyme reactions were carried out at 90° C. in a solution (200 ml) containing the substrate and the purified His-BGPh in 50 mM phosphate buffer (pH 6) with 0.1% Triton X-100 and 0.3 M NaCl. For the hydrolysis of p-nitrophenyl (p-Nph) β-D-saccharides, the reaction was terminated by the addition of 1 M Na2CO3 (1 ml), then centrifuged at 15,000×g for 10 min. The concentration of the p-Nph group in the supernatant was quantified by measuring the absorbance at 400 nm. For the hydrolysis of β-D-glucoside, the released glucose was analyzed with a Glucose C-II Test kit (Wako Pure Chemicals, Japan). Initial velocities were obtained directly from the initial slopes of the time course plots. The Km and kcat values were calculated using the Michaelis-Menten equation and the least squares method (12). The subsite affinity for a long alkyl chain was determined using the method reported previously (13-15) on the basis of the subsite theory (16).

[5] = substrate: CCCCCO[C@@H]1O[C@H](CO)[C@@H](O)[C@H](O)[C@H]1O; assay: purified protein, by the assay type; format: biochemical; settings: other: His-BGPh, 90° C. and pH 6.0
Experimental: as §2

[6] = substrate: CO[C@@H]1O[C@H](CO)[C@@H](O)[C@H](O)[C@H]1O; assay: purified protein, by the assay type; format: biochemical; settings: other: His-BGPh, 90° C. and pH 6.0
Experimental: as §2

[7] = substrate: CCCCCCCCO[C@@H]1O[C@H](CO)[C@@H](O)[C@H](O)[C@H]1O; assay: purified protein, by the assay type; format: biochemical; settings: other: His-BGPh, 90° C. and pH 6.0
Experimental: as §2

[8] = substrate: O=[N+]([O-])c1ccc(O[C@@H]2OC[C@@H](O)[C@H](O)[C@H]2O)cc1; assay: purified protein, by the assay type; format: biochemical; settings: other: His-BGPh, 90° C. and pH 6.0
Experimental: as §2

[9] = substrate: CCCCCCCCCCCCO[C@@H]1O[C@H](CO)[C@@H](O)[C@H](O)[C@H]1O; assay: purified protein, by the assay type; format: biochemical; settings: other: His-BGPh, 90° C. and pH 6.0
Experimental: as §2

[10] = substrate: O=[N+]([O-])c1ccc(O[C@@H]2O[C@H](CO)[C@H](O)[C@H](O)[C@H]2O)cc1; assay: purified protein, by the assay type; format: biochemical; settings: other: His-BGPh, 90° C. and pH 6.0
Experimental: as §2

[11] = substrate: CCCCCCCCCCCO[C@@H]1O[C@H](CO)[C@@H](O)[C@H](O)[C@H]1O; assay: purified protein, by the assay type; format: biochemical; settings: other: His-BGPh, 90° C. and pH 6.0
Experimental: as §2

[12] = substrate: CCCCCCO[C@@H]1O[C@H](CO)[C@@H](O)[C@H](O)[C@H]1O; assay: purified protein, by the assay type; format: biochemical; settings: other: His-BGPh, 90° C. and pH 6.0
Experimental: as §2

[13] = substrate: CCCCCCCCCCO[C@@H]1O[C@H](CO)[C@@H](O)[C@H](O)[C@H]1O; assay: purified protein, by the assay type; format: biochemical; settings: other: His-BGPh, 90° C. and pH 6.0
Experimental: as §2

[14] = substrate: CCCCCCCCCO[C@@H]1O[C@H](CO)[C@@H](O)[C@H](O)[C@H]1O; assay: purified protein, by the assay type; format: biochemical; settings: other: His-BGPh, 90° C. and pH 6.0
Experimental: as §2

[15] = substrate: O=[N+]([O-])c1ccc(O[C@@H]2O[C@H](CO)[C@@H](O)[C@H](O)[C@@H]2O)cc1; assay: purified protein, by the assay type; format: biochemical; settings: other: His-BGPh, 90° C. and pH 6.0
Experimental: as §2

[16] = substrate: OCc1ccccc1O[C@@H]1O[C@H](CO)[C@@H](O)[C@H](O)[C@H]1O; assay: purified protein, by the assay type; settings: other: His-BGPh, 90° C. and pH 6.0
[17] = Subsite affinity of BGPh for a long alkyl chain; format: biochemical; settings: from kcat/Km of n-Dodecyl- vs Methyl-β-D-Glcp
Experimental: as §1

[18] = Heat treatment of the purified enzyme at 95° C.; format: physicochemical; settings: 50 mM phosphate buffer (pH 6.0), 250 mM NaCl, 95° C. for 1 hour
Experimental: When the enzyme is treated in 50 mM phosphate buffer (pH 6.0) containing 250 mM NaCl at 95° C. for 1 hour, its activity is retained at the level of 80% based on the initial level. The enzyme has an optimum pH of pH 6.0 and an optimum temperature of 100° C. or higher in terms of the enzymatic activity.

Optimum temperature = format: biochemical; settings: p-Nph-β-D-Glcp; listed as purified enzyme
Experimental: The enzyme reactions were carried out in duplicate at temperatures ranging from 50° C. to 100° C. for 30 min. Optical density measurements at A405 were performed as described for the enzyme assays.

T1 sequence (P22498 whole entry N62M/R140P/N205M/N208M/A235H/V319M/K445F/G469C): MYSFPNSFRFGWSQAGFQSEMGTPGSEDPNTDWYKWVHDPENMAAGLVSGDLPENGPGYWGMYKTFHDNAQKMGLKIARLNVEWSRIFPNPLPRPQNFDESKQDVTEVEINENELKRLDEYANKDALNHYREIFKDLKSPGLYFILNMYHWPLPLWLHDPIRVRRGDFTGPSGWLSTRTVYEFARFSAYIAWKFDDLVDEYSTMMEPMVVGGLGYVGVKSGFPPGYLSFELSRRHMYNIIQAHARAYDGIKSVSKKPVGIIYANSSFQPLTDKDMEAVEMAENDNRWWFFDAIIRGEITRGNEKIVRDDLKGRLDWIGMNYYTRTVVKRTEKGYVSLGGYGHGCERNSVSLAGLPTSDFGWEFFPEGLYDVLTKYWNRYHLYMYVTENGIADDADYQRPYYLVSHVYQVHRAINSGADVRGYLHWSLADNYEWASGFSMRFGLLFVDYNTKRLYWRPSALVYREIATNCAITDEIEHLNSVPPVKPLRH

CCCCCO[C@@H]1O[C@H](CO)[C@@H](O)[C@H](O)[C@H]1O [n-Amyl-β-D-Glcp]
Km [1]: 1100 µM | kcat [1]: 256 s⁻¹

O=[N+]([O-])c1ccc(O[C@@H]2OC[C@@H](O)[C@H](O)[C@H]2O)cc1 [p-Nph-β-D-Xylp]
Km [1]: 4000 µM | kcat [1]: 284 s⁻¹

O=[N+]([O-])c1ccc(O[C@@H]2O[C@H](CO)[C@@H](O)[C@H](O)[C@H]2O)cc1 [p-Nph-β-D-Glcp, p-nitrophenyl β-D-glucopyranoside]
Km [1]: 500 µM | kcat [1]: 542 s⁻¹

OC[C@H]1O[C@@H](O[C@H]2[C@H](O)[C@@H](O)[C@H](O[C@H]3[C@H](O)[C@@H](O)[C@H](O[C@H]4[C@H](O)[C@@H](O)C(O)O[C@@H]4CO)O[C@@H]3CO)O[C@@H]2CO)[C@H](O)[C@@H](O)[C@@H]1O (some centres unmarked) [Cellotetraose]
efficiency of hydrolysis by His-BGPh [2]: low efficiency | kcat [1]: 584 s⁻¹ | Km ([1]; read-out: Km): 1700 µM | efficiency of hydrolysis by Sβ-gly [1]: high efficiency

O=[N+]([O-])c1ccc(O[C@@H]2O[C@H](CO)[C@H](O)[C@H](O)[C@H]2O)cc1 [p-Nph-β-D-Galp]
Km [1]: 4700 µM | kcat [1]: 1020 s⁻¹

OC[C@H]1O[C@@H](OC[C@H]2O[C@@H](O)[C@H](O)[C@@H](O)[C@@H]2O)[C@H](O)[C@@H](O)[C@@H]1O [β-Gentiobiose]
kcat [1]: 1360 s⁻¹ | Km ([1]; read-out: Km): 100000 µM

OC[C@H]1O[C@@H](O[C@H]2[C@H](O)[C@@H](O)[C@H](O[C@H]3[C@H](O)[C@@H](O)C(O)O[C@@H]3CO)O[C@@H]2CO)[C@H](O)[C@@H](O)[C@@H]1O (some centres unmarked) [Cellotriose]
efficiency of hydrolysis by His-BGPh [2]: low efficiency | kcat [1]: 197 s⁻¹ | Km ([1]; read-out: Km): 3000 µM | efficiency of hydrolysis by Sβ-gly [1]: high efficiency

CCCCCCO[C@@H]1O[C@H](CO)[C@@H](O)[C@H](O)[C@H]1O [n-Hexyl-β-D-Glcp]
Km [1]: 1000 µM | kcat [1]: 263 s⁻¹

CCCCCCCCO[C@@H]1O[C@H](CO)[C@@H](O)[C@H](O)[C@H]1O [n-Octyl-β-D-Glcp]
Km [1]: 700 µM | kcat [1]: 313 s⁻¹ | kcat/Km relative to that for laminaribiose [3]: 0.48 fold | kcat/Km relative to that for p-Nph-β-D-Glcp [3]: 0.4 fold

OCc1ccccc1O[C@@H]1O[C@H](CO)[C@@H](O)[C@H](O)[C@H]1O [Salicin]
Km [1]: 5000 µM | kcat [1]: 880 s⁻¹

OC[C@H]1O[C@@H](O[C@H]2[C@H](O)[C@@H](CO)OC(O)[C@@H]2O)[C@H](O)[C@@H](O)[C@@H]1O (some centres unmarked) [Laminaribiose]
kcat [2]: 184 s⁻¹ | Km [1]: 1000 µM | kcat [1]: 908 s⁻¹

Cellobiose
kcat [2]: 194 s⁻¹ | Km [1]: 30000 µM | kcat [1]: 1333 s⁻¹

B1: his-tagged BGPh from P. horikoshii (His-BGPh) (Pyrococcus horikoshii OT3) (protein)
chain: MPLKFPEMFLFGTATSSHQIEGNNRWNDWWYYEQIGKLPYRSGKACNHWELYRDDIQLMTSLGYNAYRFSIEWSRLFPEENKFNEDAFMKYREIIDLLLTRGITPLVTLHHFTSPLWFMKKGGFLREENLKHWEKYIEKVAELLEKVKLVATFNEPMVYVMMGYLTAYWPPFIRSPFKAFKVAANLLKAHAIAYELLHGKFKVGIVKNIPIILPASDKERDRKAAEKADNLFNWHFLDAIWSGKYRGVFKTYRIPQSDADFIGVNYYTASEVRHTWNPLKFFFEVKLADISERKTQMGWSVYPKGIYMALKKASRYGRPLYITENGIATLDDEWRVEFIIQHLQYVHKAIEDGLDVRGYFYWSFMDNYEWKEGFGPRFGLVEVDYQTFERRPRKSAYVYGEIARSKEIKDELLKRYGLPELQL
optimum pH (Optimum pH): 6.0 | Km [4]: 350 µM | kcat [4]: 79 s⁻¹ | kcat/Km [4]: 225670 M⁻¹ s⁻¹ | Km [5]: 2020 µM | kcat [5]: 31 s⁻¹ | kcat/Km [5]: 15110 M⁻¹ s⁻¹ | Km [6]: 40740 µM | kcat [6]: 35 s⁻¹ | kcat/Km [6]: 850 M⁻¹ s⁻¹ | Km [7]: 200 µM | kcat [7]: 34 s⁻¹ | kcat/Km [7]: 170700 M⁻¹ s⁻¹ | Km [8]: 100 µM | kcat [8]: 3 s⁻¹ | kcat/Km [8]: 31830 M⁻¹ s⁻¹ | Km [9]: 30 µM | kcat [9]: 36 s⁻¹ | kcat/Km [9]: 1.1529e+06 M⁻¹ s⁻¹ | Km [10]: 1300 µM | kcat [10]: 123 s⁻¹ | kcat/Km [10]: 94340 M⁻¹ s⁻¹ | Km [11]: 50 µM | kcat [11]: 43 s⁻¹ | kcat/Km [11]: 944370 M⁻¹ s⁻¹ | Km [12]: 540 µM | kcat [12]: 33 s⁻¹ | kcat/Km [12]: 60280 M⁻¹ s⁻¹ | Km [13]: 80 µM | kcat [13]: 37 s⁻¹ | kcat/Km [13]: 469620 M⁻¹ s⁻¹ | Km [14]: 80 µM | kcat [14]: 39 s⁻¹ | kcat/Km [14]: 471570 M⁻¹ s⁻¹ | kcat [15]: 2 s⁻¹ | kcat/Km [15]: 14600 M⁻¹ s⁻¹ | Km [16]: 1960 µM | kcat [16]: 44 s⁻¹ | kcat/Km [16]: 22200 M⁻¹ s⁻¹ | subsite affinity A(C11) to bind a long alkyl chain (C11) [17]: 17.8 kJ/mol | activity retained based on the initial level [18]: 80% | optimum temperature (Optimum temperature): ≥ 100 °C

From patent publication US6960454B2, “Methods for making and using a thermophilic enzyme as a β-glycosidase” (Director-General of Agency of Industrial Science and …, priority 1998, dated 2005)
